Here are results for 1 molecule from patent US20120244578A1 (Amgen, published 2012).

One experiment has as its target T1, human FcRn (human, UniProt P55899 24-297; P61769 21-119, limits assumed).
T1 construct: also called neonatal Fc-receptor
The experiment is described as follows: BIAcore solution competition (FIG. 6). The procedure:
(§1) BIAcore analysis of human and mouse FcRn binding to Fc mutant #1 (Fc K392D-K409D, dimer), #2 (Fc K392D-K409D-Y349T, monomeric SEC profile) and #6 (Fc K392D-K409D-Y349T, monomeric SEC profile) using a BIAcore3000 instrument. CHO cell produced huFc was immobilized on follow cell 2 (Fc2) on a CM5 chip. Fc1 was used as background control. 2 nM human FcRn were incubated with 1, 10, 100 nM of indicated Fc variants for one hour before injected to the CHO huFc surface. Reduced binding of FcRn to the immobilized CHO huFc indicates binding of FcRn to the Fc variants in solution. 2 nM mouse FcRn were incubated with 0.1, 1, 10 nM of Fc variants for one hour before injected to the CHO huFc surface.
In general terms: Surface plasmon resonance follows binding to a sensor surface in real time, without labels.

The target of a further experiment is T2, mouse FcRn (mouse, UniProt Q61559 22-297; P01887 21-119, limits assumed).
T2 sequence (looked up): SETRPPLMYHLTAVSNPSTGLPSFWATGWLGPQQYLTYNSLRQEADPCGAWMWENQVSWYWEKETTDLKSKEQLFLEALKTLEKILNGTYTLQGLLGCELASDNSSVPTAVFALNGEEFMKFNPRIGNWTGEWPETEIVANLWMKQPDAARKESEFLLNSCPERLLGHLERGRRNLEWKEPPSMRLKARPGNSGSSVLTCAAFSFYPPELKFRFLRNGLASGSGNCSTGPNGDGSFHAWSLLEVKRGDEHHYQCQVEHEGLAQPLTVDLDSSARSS
T2 sequence (b2m, looked up): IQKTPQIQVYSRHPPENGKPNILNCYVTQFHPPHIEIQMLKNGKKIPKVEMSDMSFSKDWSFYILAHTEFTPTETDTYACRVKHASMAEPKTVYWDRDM
The experiment is described as follows: BIAcore solution competition (FIG. 6). The procedure:
as §1

T1 sequence (P55899 24-297 limits assumed, chain 1 of 2): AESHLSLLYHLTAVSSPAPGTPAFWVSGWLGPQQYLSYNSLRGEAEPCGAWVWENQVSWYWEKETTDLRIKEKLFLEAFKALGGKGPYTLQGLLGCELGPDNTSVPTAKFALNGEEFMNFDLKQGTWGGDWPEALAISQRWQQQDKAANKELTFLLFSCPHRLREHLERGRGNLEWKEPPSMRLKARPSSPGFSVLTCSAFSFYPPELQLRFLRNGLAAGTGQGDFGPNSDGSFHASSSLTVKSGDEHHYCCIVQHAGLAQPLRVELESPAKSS
T1 sequence (P61769 21-119 limits assumed, chain 2 of 2): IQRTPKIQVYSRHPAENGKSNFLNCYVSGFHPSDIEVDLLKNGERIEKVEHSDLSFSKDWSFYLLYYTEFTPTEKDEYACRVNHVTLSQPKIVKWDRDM

B1: hu IgG1 Fc K392D K409D Y349T (construct 2 of Table 2) (other, human, UniProt P01857-1 114-330, looked up, name in EU numbering)
chain: APELLGGPSVFLFPPKPKDTLMISRTPEVTCVVVDVSHEDPEVKFNWYVDGVEVHNAKTKPREEQYNSTYRVVSVLTVLHQDWLNGKEYKCKVSNKALPAPIEKTISKAKGQPREPQVTTLPPSRDELTKNQVSLTCLVKGFYPSDIAVEWESNGQPENNYDTTPPVLDSDGSFFLYSDLTVDKSRWQQGNVFSCSVMHEALHNHYTQKSLSLSPGK
notes: domain: Fc; Monomer by SEC and AUC; also called Fc mutant #2; Monomer Fc
Turning to B1, the binding result with human FcRn and in the experiment with mouse FcRn was “binds” in each case.
